Results as given in the DeepSol protein solubility set.

Assay: soluble on expression in E. coli; label from the status in PepcDB or PDB records

| Sequence | soluble on expression in E. coli |
| --- | --- |
| GPGSMWFGTKNQRKAPQIPFPKRNKTKQRRASRRVRARVRTGNKPEHAIGGTGCASSRMRRGLDGSNTAAPGCDVSSHLSTPVHRPLRCAQPLFVFKSTSLRASLRNTCHHARHRARPYAHGSVSPPLSPSLAYFPQRSKGSRTPAYRWDCTVTRRSWSAHGSASTLVCARVRRSAPFTIGRANDRQRSAAEGDDARTPAHLTTLSTRSQQPKQAKQNTGSSMNSAGTGAPAKAAGVSASSLSMPKHKLVLLGDQSVGKTSIITRFMYDTFDQQYQPTIGIDFFSKTVHLDDDRDVRLHLWDTAGQERFHSLIPSYIRNSAATVVVYDITSRPTFFSAFKWIDEVRSESGADVVIMLVGNKVDQASERREVSAEEAMKKASECSVLFMEVSAKHGTNIKHMFRQVAAALPAPASTGGGAGVTGATSSSAGGVGAAGASGSGASAPGISAGQFGGIVRSPFLITPSAMQAASNGTGGAGEADGANPNAQGGRGGACC | not soluble |
| MYQKFKGGDLMIHGGDIYTEGVFKGRELLDYSSNINPLGIPKSFLNNIDEGIKNLGVYPDVNYRRLNKSIENYLKLKDIGIVLGNGASEIIELSISLFEKILIIVPSYAEYEINAKKHGVSVVFSYLDENMCIDYEDIISKIDDVDSVIIGNPNNPNGGLINKEKFIHVLKLAEEKKKTIIIDEAFIEFTGDPSSSFVGEIKNYSCLFIIRAMTKFFAMPGIRFGYGITNNKEIAAKIKAKQNPWNINCFAEMAAINCLKDTNYIEESLLWIKKERKRFIEELNKIGFIKRVFSPHANFVLCRLENISGEKLYDSLLKEDIVIRRCCNFIGLDDSFVRFAIKDEKKNTKFLRALKGVENNL | soluble |
| MASWTLVDASAIAVRHPYTFYKPDAETIDRVAAGESVKLIFAFDTDNPDAPRAERLWVTVEGIEADGAFSGRLDNYPQYIRDLSLGERIVFEARHIINTEHDPRETPISRYARRCFVTRRVIDEGKAVGYLYREAPEEENDSGWRLMAGDESDDYMNTAGTTAYVSLGSVLNADDSILPLLDAPPGRAFERLADGSFIEVQGPEG | not soluble |
| MSSNLQLVETFDSRQFVVARWNRNDTTAMVPSAIAVVVFVESVEYKLGCKEKIGYSPTPEDQDQFMILQMESIDEANRICHDSIAKGFAINNTKIVFTPLLGLNGFRLQDAIDFMKTSQPHFNNDELLEVLTMAICQELPERLKILEDGFSFIEQGVSELIQNSACEMFGSFASPVRRNGYSDIDINVESVSAPGQRVSTNVRPLNEVVANPKCLITHPLTKSELETYPQEEIIKILYRCFNENSAFKTKFEMRFLPARTPIIVFKNIEVEGMNVSYDLSVHNQISVEKASLLHEFIVKDKSKGSRMKNAMMFIVHWAKSNKLLSGDYPEEKLEVKTKLNSYIINQLVIHFVQAATNKVHVNPQAKRDSRVNEYNFDTLFGDYCKFFRELFKYYANFDFTNKAIYGKKAMQKKTLSSAHGGVEESPLMLMDPMDITHNISAKVTEDAVKLLNGLIRNALFILKQNHFHINYLLETNTMATMLMKSREPKISISTRVTDGAEHQYLSVQLPAVVITSSDLFLLLTRVLRFNVCPNEQGPSVVDLCTPTGAIFLVTSRAWVGRRNTKRALKNSRHDLTPLQIDVMCSDKYDYEEDIAELRISMSTVPGTRIRLACIDIMRGQVSEVRDAIHFLIDQFINNNYDDLEKNGVQTISRIPIAAPTWP | not soluble |
| MSLLKLFDAHFHIIDYRFPLIANQSYLPPEFTVEDYLQRAKPLNICGGAVVSGSFQAFDQTYLLTALSVLGPNFVGVTQLPATVSDEEIIQLNQHGIRAVRFNLKRGGSESIHQLKYFAHRIYEMVRWHVEIYVDSKELGDLTNLLLELPAVSIDHLGLSQSGFSELLHLVEHGIKIKASGFGRVDFDVKKALQTIAQISPDALLFGTDLPSTRAPLPFLDSDIQLIQDLFDEELTEKILYRNACNFYSKNEGHHHHHH | soluble |
| MGSDKIHHHHHHVGTVNVRSGRMRYFTNRDAPLDVEHVMAPAAFPPGFPAVRLEAESYWDGGIYSNTPLEAVLDDRPRRDSVIFSVQLWPSSGPEPESILQVMSRQRDIQYSSRAESHLDRQKQIHRLRHVIRELGQHLPEEQRNAPAVRELLDWGCGTTMQVLELDAPAFDNDDLNRDIDFSSAGIERRWRAGYEDTARLLKLAPWRETLDPMEGISVFRMASAESRK | not soluble |
| MIDKSAFIHPTAIVEDGAVIGANAHIGPFCIVGPQVEIGEGTVLKSHVVVNGQTKIGRDNEIYQFASIGEVNQDLKYAGEPTRVEIGDRNRIRESVTIHRGTVQGGGLTKVGSDNLLMINAHVAHDCTVGNRCILANNATLAGHVSVDDFAIIGGMTAVHQFCIIGAHVMVGGCSGVAQDVPPYVIAQGNHATPFGVNIEGLKRRGFSREGLVAIRNAYKLLYRSGKTLDEAKLEIAELAEKHPEVKAFTEFFERSTRGPIR | not soluble |
| MSLRTIPLLCFNDVYRVNQKYNPQPGAPEDNSPDRTITVSQFAELLLSERSKWADRQSEDQDDQEGPSKEGLVLFAGDVFNPSVESSVTRGSHMVPIMNALKVDYACVGNHDFDFGFPHLTKLVESTSFPWLLSNIVDTNTGRQPEPLKRFIVTERCGVKIGLIGLVEKDWIATIPSWPHNFRYRSMKDTALELSRELRDPNGEHQVDIIIALTHCRVPNDIRLAIELGAVADKPGVENEHGIDLIVGGHDHIYYIGKGATSWEGYAGRKDVPGTTEDHGVRLIKSGTDFRDLTSANLTVTPTPLGSIRRQLITSLTGKHLYVLPSSPSSPPFEELVKSLLSSVSEALTKPVCFTLTPFDARSEVVRTQESGLGNWIADVLMHAYAESIVQAKGKEGGLGEEFEGDADAAILCGGTLRGDSQYGPGKISLGDILEILPFEDPVVCIELDGKGIWNALESALSKWPAQEGRFPIVSGLAVKWDHTRPPGQRILSIHQIAQPKKDDDDWEDPADMVDFKEQEDGTTVVVKQKKLQLGEEVKNEEGGRMYKVITRDYMAQGYDGFEALKNRNFIVDDENGQIMSSILRSFLLGSSYIFRHKQLEEAAHSHLSRRTSEGHHHHHH | soluble |
| MIDYTAAGFTLLQGAHLYAPEDRGICDVLVANGKIIAVASNIPSDIVPNCTVVDLSGQILCPGFIDQHVHLIGGGGEAGPTTRTPEVALSRLTEAGVTSVVGLLGTDSISRHPESLLAKTRALNEEGISAWMLTGAYHVPSRTITGSVEKDVAIIDRVIGVKCAISDHRSAAPDVYHLANMAAESRVGGLLGGKPGVTVFHMGDSKKALQPIYDLLENCDVPISKLLPTHVNRNVPLFEQALEFARKGGTIDITSSIDEPVAPAEGIARAVQAGIPLARVTLSSDGNGSQPFFDDEGNLTHIGVAGFETLLETVQVLVKDYDFSISDALRPLTSSVAGFLNLTGKGEILPGNDADLLVMTPELRIEQVYARGKLMVKDGKACVKGTFETA | soluble |
| SQTLRIGYVSSLLYGLLPEIIYLFRQQNPEIHIELIECGTKDQINALKQGKIDLGFGRLKITDPAIRHIVLHKEQLKLAIHKHHHLNQFAATGVHLSQIIDEPMLLYPVSQKPNFATFIQSLFTELGLVPSKLTEIREIQLALGLVAAGEGVCIVPASAMDIGVKNLLYIPILDDDAYSPISLAVRNMDHSNYIPKILACVQEVFATHHIRPLIESILEHHHHHH | soluble |
| MGSDKIHHHHHHMATEAQVLEALQATMSAAYTRGLSAAKPQWNMIATEVPSAGAANFYGWLKDLPGIVEWTGARQLANLGKHGYSIENKTFESSISISRDNVDDDQIGQYSVIAQNYGDQVAYFPDTLAYPLLKAGFTTLCYDGQNFFDTDHPLATTPATTFSNVIGDPATDTGEPWFLIDDTKVLKPIVFQNRRPFVFKNMNPNEEYTWFNNKYAAGVDGRCNVGFSFPQLAIGSKAALTEANYAAAKKLLLKMKKVDGTPIGTRATKLVVGPDNEAAAKKLISRMLIEGGDTNIYYNDVEIVVSPLVTA | not soluble |
| MGSDKIHHHHHHMRIRPDRNRGRSAGINPSGRFEPVSRHVFDDGWSSLEELPPFKTEVQVEKPRTIITRNESPDISFDRSINPYRGCEHGCVYCFARPTHAFMGLSPGLDFETKLFAKPDAARLLDKELSKEGYQPRTIAIGTNTDPYQPIEKQYRIMREILEVLEARGHPVGIVTKSALVTRDIDILSRMAERGLAKVALSVTTLDRMLARTMEPRASTPTKRLEAIRQLSDAGIPTSVMVAPIIPGLTDQEMERILDSAYAAGAREAGYVVLRLPLEVSPIFKDWLLRHYPDRYRHVMSLIRSMRDGKDYDSEWGKRMKGAGPYAWQIGRRFEITAKRLGLNIERRTLRTDQFVAAGKDQEQLMLL | not soluble |
